From PMC6378967, “Structural basis for the specificity of renin-mediated angiotensinogen cleavage” (The Journal of Biological Chemistry, 2018)

T1: biotinylated renin D226A mutant (human, biotin (NHS-PEG4-Biotin), preferentially on N-terminal alpha-amino groups)
T1 construct: human renin D226A, as m1; source: HEK293EBNA cells, purified; biotinylated with EZ-link-NHS-PEG4-Biotin at pH 6.2
T1 sequence (P00797 67-406 with D226A, looked up): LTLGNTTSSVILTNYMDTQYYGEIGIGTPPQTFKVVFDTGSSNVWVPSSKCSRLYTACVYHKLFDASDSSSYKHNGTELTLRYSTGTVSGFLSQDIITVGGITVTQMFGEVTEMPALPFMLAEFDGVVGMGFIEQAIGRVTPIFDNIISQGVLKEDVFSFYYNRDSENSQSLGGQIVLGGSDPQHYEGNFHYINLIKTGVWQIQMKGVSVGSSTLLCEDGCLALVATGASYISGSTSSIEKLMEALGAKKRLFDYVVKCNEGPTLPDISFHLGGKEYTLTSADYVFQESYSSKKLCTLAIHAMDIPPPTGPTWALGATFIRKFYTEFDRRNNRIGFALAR


Columns and labels:
[1] = molecular target: T1, biotinylated renin D226A mutant; test: BLI; FortéBio Octet Red96; biotinylated renin D226A (2.5 μg/ml) loaded on streptavidin biosensors; 2-fold dilutions of AGT in 10 mM Tris, pH 7.4, 0.15 M NaCl, 1% BSA; 1:1 binding model, global fit; KD = koff/kon; three independent assays; details: both partners purified
[2] = molecular target: T1, biotinylated renin D226A mutant; test: BLI; as a1 (biotinylated renin D226A on streptavidin biosensors), but KD from steady-state analysis because on and off rates were very fast; details: both partners purified

Kd [1] [µM] | koff [1] [s⁻¹] | kon [1] [M⁻¹ s⁻¹] | Kd [2] [µM] | Binder
0.0203 | 0.000437 | 21500 |  | fully glycosylated WT human angiotensinogen (AGT) (natural protein, N-linked glycans (fully glycosylated; glycosylation sites Asn14, Asn137, Asn271, Asn295)) DRVYIHPFHLVIHNESTCEQLAKANAGKPKDPTFIPAPIQAKTSPVDEKALQDQLVLVAAKLDTEDKLRAAMVGMLANFLGFRIYGMHSELWGVVHGATVLSPTAVFGTLASLYLGALDHTADRLQAILGVPWKDKNCTSRLDAHKVLSALQAVQGLLVAQGRADSQAQLLLSTVVGVFTAPGLHLKQPFVQGLALYTPVVLPRSLDFTELDVAAEKIDRFMQAVTGWKTGCSLMGASVDSTLAFNTYVHFQGKMKGFSLLAEPQEFWVDNSTSVSVPMLSGMGTFQHWSDIQDNFSVTQVPFTESACLLLIQPHYASDLDKVEGLTFQQNSLNWMKKLSPRTIHLTMPQLVLQGSYDLQDLLAQAELPAILHTELNLQKLSNDRIRVGEVLNSIFFELEADEREPTESTQQLNKPEVLEVTLNRPFLFAVYDQSATALHFLGRVANPLSTA
 |  |  | 13 | spent AGT (human AGT without the N-terminal 10-residue angiotensin I peptide) (domain or fragment, glycosylated) VIHNESTCEQLAKANAGKPKDPTFIPAPIQAKTSPVDEKALQDQLVLVAAKLDTEDKLRAAMVGMLANFLGFRIYGMHSELWGVVHGATVLSPTAVFGTLASLYLGALDHTADRLQAILGVPWKDKNCTSRLDAHKVLSALQAVQGLLVAQGRADSQAQLLLSTVVGVFTAPGLHLKQPFVQGLALYTPVVLPRSLDFTELDVAAEKIDRFMQAVTGWKTGCSLMGASVDSTLAFNTYVHFQGKMKGFSLLAEPQEFWVDNSTSVSVPMLSGMGTFQHWSDIQDNFSVTQVPFTESACLLLIQPHYASDLDKVEGLTFQQNSLNWMKKLSPRTIHLTMPQLVLQGSYDLQDLLAQAELPAILHTELNLQKLSNDRIRVGEVLNSIFFELEADEREPTESTQQLNKPEVLEVTLNRPFLFAVYDQSATALHFLGRVANPLSTA
